# B1: 24-nt RNA oligomer (ssRNA)
# RNA: UUUGUUACACACACACACGCUGUG
# Molecular target: Influenza A nucleoprotein (NP), wild type (Influenza A virus A/WSN/33 (H1N1), UniProt P15682 1-498)
# Test: EMSA
binder,measurement,value
B1,binding result,binds

# Reference: publication PMC7097325
